Laboratory results taken from publication PMC5567573, “Identification, heterologous expression and characterization of a dye-decolorizing peroxidase of Pleurotus sapidus” (AMB Express, 2017).

Experiments:
Assay in all cases: purified protein
purified protein [1] = substrate: COc1ccccc1O; conditions: H2O2 62.5 µM, pH 4.5, 50 mM sodium acetate, 30 °C, 4.5 nM enzyme
purified protein [2] = substrate: CCn1c(=NN=c2sc3cc(S(=O)(=O)O)ccc3n2CC)sc2cc(S(=O)(=O)O)ccc21; assay type: biochemical, Pleurotus sapidus; conditions: H2O2 125 µM, pH 3.8, 100 mM sodium acetate, 30 °C, 0.27 nM enzyme
purified protein [3] = substrate: COc1cccc(OC)c1O; assay type: biochemical, Pleurotus sapidus; conditions: H2O2 62.5 µM, pH 4.5, 50 mM sodium acetate, 30 °C, 1.8 nM enzyme

B1: rPsaDyP (recombinant DyP-type peroxidase of Pleurotus sapidus) (Pleurotus sapidus) (protein)
chain: ATNGTFLPLEEIQGDIMIGMRKPKEIFFFYSLQNPRKFKSVLAKLIYPHITTTAQMVCTTCAQPSAMLNVAWTSQGLRKLGVLDNLGDPYFAMGQLSDAAALGDTDPSTTWAPGLYANKTDGAFLIAAKDWEPIDTLLNQMKAWLGDAIVETHSNRGAVRPGDAAGKEHFGWLDGFIQPAVAGFATSTYPGQQLLLPGTLLTKEIGDPRRAARPAWTKWGSFMAYRQLQELVPEFDDYLMQEAALIQDSSRSVRERADLLGARMFGRWKSGTPLDLAPEKDDPSIGPNLMLNNNFDFNHPAPFNINTNQSYCPFSAHIRKIRPRADQGNQNLKNQMIRASIPYGEELSDDEINNKKTGTERGVAFVTYQSDLGSGFHFQQAEWANNVNIPTGKSDPTPGFDPIVGQNSGKPLVVSGIDYTDLNHDLTFMSFVVSKGGDYFFSPSMSAILHKIAA
Purified protein [1]
  Km: 713 µM
  Vmax: 21 µM/min
  kcat: 74 s⁻¹
  kcat/Km: 100000 M⁻¹ s⁻¹
Purified protein [2]
  Km: 99 µM
  Vmax: 6 µM/min
  kcat: 375 s⁻¹
  kcat/Km: 3.8e+06 M⁻¹ s⁻¹
Purified protein [3]
  Km: 1227 µM
  Vmax: 6.6 µM/min
  kcat: 60 s⁻¹
  kcat/Km: 49000 M⁻¹ s⁻¹
